Where a chain is given by its changes, count along the chain named. Names may count otherwise. A value given as a limit tells only on which side of the number the result lay.

B1: AS170036 VL1VH1-VHG56Y (scFv)
scFv: QSALTQPRSVSGSPGQSVTISCAGTSSDVGSENYVSWYQQHPGKAPKLMIYQVNKRASGVPDRFSGSKSGNTASLTISGLQAEDEADYYCASYRSSDHNIVFGGGTKLTVLGGGGSGGGGSGGGGSEVQLVESGGGLVQPGGSLRLSCAASGFTFSSYAMSWVRQAPGKGLEWVSTINSGTYSPYYADSVKGRFTISRDNSKNTLYLQMNSLRAEDTAVYYCAKNFFDGSWFLGPPAMDYWGQGTLVTVSSHHHHHH
B2: AS170036 VL1VH1-VHS57H (scFv)
scFv: B1 scFv with Y182G, S183H
B3: AS170036 VL1VH1-VHG108S (scFv)
scFv: B1 scFv with Y182G, G234S
B4: AS170036 VL1VH1-VHS57K (scFv)
scFv: B1 scFv with Y182G, S183K
B5: AS170036 VL1VH1-VHS57M (scFv)
scFv: B1 scFv with Y182G, S183M
B6: AS179723 VL1g1VH1g1 scFv-mIgG2aFc (Fc fusion, not shown: a dimerising Fc or GST)
scFv: QSVLTQPPSASGTPGQRVTISCSGSSNNIGGNYVNWYQQLPGTAPKLLIYDNKNRPSGVPDRFSGSKSGTSASLAISGLQSEDEADYYCASWDDSLSAVVFGGGTKLTVLGGGGSGGGGSGGGGSEVQLVESGGGLVQPGGSLRLSCAASGFTFLNYAMSWVRQAPGKGLEWVSSNSGAGSTYYADSVKGRFTISRDNSKNTLYLQMNSLRAEDTAVYYCAKGTNVGSWSSLHYWGQGTLVTVSS
B7: AS179723 VL1g1VH1g1-N73Y scFv-mIgG2aFc (Fc fusion, not shown: a dimerising Fc or GST)
chain: B6 scFv with N198Y
notes: Humanized
B8: AS179723 VL1VH1g1 scFv-mIgG2aFc (Fc fusion, not shown: a dimerising Fc or GST)
scFv: B6 scFv with S23T
B9: AS179723 VL1g1VH1 scFv-mIgG2aFc (Fc fusion, not shown: a dimerising Fc or GST)
scFv: B6 scFv with A185S
B10: AS179723 VL1VH1 scFv-mIgG2aFc (Fc fusion, not shown: a dimerising Fc or GST)
scFv: B6 scFv with S23T, A185S
B11: AS179732 VL1VH1 scFv-mIgG2aFc (Fc fusion, not shown: a dimerising Fc or GST)
scFv: B6 scFv with S23T, N27S, K53S, P56A, A98G, V99A, A185S
B12: AS179732 VL1g1VH1g1-N73Y scFv-mIgG2aFc (Fc fusion, not shown: a dimerising Fc or GST)
chain: B6 scFv with N27S, K53S, P56A, A98G, V99A, N198Y
notes: Humanized
B13: AS179732 VL1g1VH1 scFv-mIgG2aFc (Fc fusion, not shown: a dimerising Fc or GST; small tags and cut ends)
scFv: B6 scFv with N27S, K53S, P56A, A98G, V99A, A185S
B14: AS179732 VL1VH1g1 scFv-mIgG2aFc (Fc fusion, not shown: a dimerising Fc or GST; small tags and cut ends)
scFv: B6 scFv with S23T, N27S, K53S, P56A, A98G, V99A
B15: AS179732 VL1g1VH1g1 scFv-mIgG2aFc (Fc fusion, not shown: a dimerising Fc or GST; small tags and cut ends)
scFv: B6 scFv with N27S, K53S, P56A, A98G, V99A
B16: AS170036 VL1VH2 scFv-mIgG2aFc (Fc fusion, not shown: a dimerising Fc or GST)
scFv: QSALTQPRSVSGSPGQSVTISCAGTSSDVGSENYVSWYQQHPGKAPKLMIYQVNKRASGVPDRFSGSKSGNTASLTISGLQAEDEADYYCASYRSSDHNIVFGGGTKLTVLGGGGSGGGGSGGGGSEVQLVESGGGLVQPGGSLRLSCTASGFTFSSYAMSWVRQAPGKGLEWVSTINSGTGSPYYADSVKGRFTISRDNSKNTLYLQMNSLRAEDTAMYYCAKNFFDGSWFLGPPAMDYWGQGTLVTVSS
B17: AS170036 VL2VH1 scFv-mIgG2aFc (Fc fusion, not shown: a dimerising Fc or GST)
scFv: B16 scFv with M49L, V60I, T149A, M219V

The first assay deals with T1, AFP158/HLA-A*02:01 complex (human).
T1 construct: biotinylated on the BSP by BirA for ELISA and panning; also called biotinylated AFP158/HLA-A*02:01 complex; Bio-AFP158
The assay is described as follows: SPR; vs AS170036 VL1VH1.
For the molecule B1, the Affinity increase was 6.6 fold.

Take B2: the Affinity increase worked out at 6.9 fold.

Turning to B3, the Affinity increase was 2.8 fold.

For the molecule B4, the Affinity increase turned out to be 4.4 fold.

Take B5: the Affinity increase is 2.7 fold.

A further assay concerns the target T1, AFP158/HLA-A*02:01 complex. Put plainly: SPR, crude scFv captured.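 Also: Peptide–MHC complex flowed at several concentrations over sensorchip-captured scFv, Kd derived from on- and off-rates obtained from the association and dissociation curves.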
B1: the Kd is 35 nM.

Turning to B2, the Kd stood at 35 nM.

B3: the dissociation constant Kd was found to be 96 nM. Against the preceding molecule, the Kd is about 2.7-fold higher.

The molecule B4 yielded a dissociation constant (Kd) of 56 nM.

With B5, the Kd was 90 nM.

The target of a further assay is T1, AFP158/HLA-A*02:01 complex. Put plainly: SPR; vs AS170036 VL1VH1. The source holds these as a separate data set.
On to B1, for which the Affinity increase was above 2 fold.

Regarding B2, the Affinity increase was above 2 fold.

B3 registered an Affinity increase above 2 fold.

Molecule B4 registered an Affinity increase above 2 fold.

Molecule B5 registered an Affinity increase above 2 fold.

Another assay concerns the target T1, AFP158/HLA-A*02:01 complex. Put plainly: SPR, scFv-mIgG2aFc from supernatant captured, complex as analyte.
Procedure: (§1) The binding affinity between selected antibodies and AFP158/HLA-A*02:01 complex was determined by surface plasmon resonance (SPR) on a BIAcore T200 instrument (GE Healthcare). The experiment was carried out as follows. The purified sdAb/scFv-mIgG2aFc protein were captured through mIgG2a-Fc onto the sensorchip. […] On-rate (kₐ) and off-rate (kd) were calculated based on association and dissociation curve, and were used to estimate the equilibrium dissociation constant (KD).
(§2) Humanized heavy chains and light chains were combined, and used to produce a series of humanized antibodies. These antibodies were synthesized as scFv-mIgG2aFc and transiently produced using HEK293 cells. The antibodies in the supernatant were subjected to SPR affinity assessment.
The molecule B6 showed a Kd of 320 nM, a koff of 0.029 s⁻¹ and an association rate constant (kon) of 91000 M⁻¹ s⁻¹.

On to B7, for which the affinity, expressed as Kd, was 56 nM.

The molecule B8 registered a Kd of 310 nM, a koff of 0.03 s⁻¹ and a kon of 99000 M⁻¹ s⁻¹.

As to B9, binding was characterised by a dissociation constant (Kd) of 360 nM, the koff is 0.034 s⁻¹ and the on-rate constant (kon) amounted to 93000 M⁻¹ s⁻¹.

With B10, the Kd came to 320 nM, the koff amounted to 0.031 s⁻¹ and the on-rate (kon) was 98000 M⁻¹ s⁻¹.

Another assay deals with ZNF566 peptide/HLA-A*02:01 complex (recombinant) (human). The assay is described as follows: SPR.
For the molecule B1, the binding result was “no binding (tested: all below 3.5 RU)”.

As to B2, the binding result is on record as “no binding (tested: all below 3.5 RU)”.

For B3, the binding result is reported as “no binding (tested: all below 3.5 RU)”.

As to B4, the binding result is reported as “no binding (tested: all below 3.5 RU)”.

B5: the binding result is on record as “no binding (tested: all below 3.5 RU)”.

The target of a further assay is RP1 peptide/HLA-A*02:01 complex (recombinant) (human, UniProt P16213 21-119 (Pongo pygmaeus entry)). Put plainly: SPR.
Take B1: the binding result is “no binding (tested: all below 3.5 RU)”.

For B2, the binding result is “no binding (tested: all below 3.5 RU)”.

In the case of B3, the binding result is listed as “no binding (tested: all below 3.5 RU)”.

For the molecule B4, the binding result was “no binding (tested: all below 3.5 RU)”.

Turning to B5, the binding result is given as “no binding (tested: all below 3.5 RU)”.

Another assay deals with ATG9A peptide/HLA-A*02:01 complex (recombinant) (human). The assay is described as follows: SPR.
B1: the binding result was “no binding (tested: all below 3.5 RU)”.

In the case of B2, the binding result is given as “no binding (tested: all below 3.5 RU)”.

As for B3, the binding result is on record as “no binding (tested: all below 3.5 RU)”.

As to B4, the binding result is “no binding (tested: all below 3.5 RU)”.

Regarding B5, the binding result is given as “no binding (tested: all below 3.5 RU)”.

For a further assay, the target named is OR51B6 peptide/HLA-A*02:01 complex (recombinant) (human). The assay is described as follows: SPR.
As for B1, the binding result is given as “no binding (tested: all below 3.5 RU)”.

As to B2, the binding result was “no binding (tested: all below 3.5 RU)”.

B3: the binding result was “no binding (tested: all below 3.5 RU)”.

With B4, the binding result was “no binding (tested: all below 3.5 RU)”.

In the case of B5, the binding result is listed as “no binding (tested: all below 3.5 RU)”.

A further assay deals with BRCA2 peptide/HLA-A*02:01 complex (recombinant) (human). The assay is described as follows: SPR.
Take B1: the binding result is “no binding (tested: all below 3.5 RU)”.

Take B2: the binding result is “no binding (tested: all below 3.5 RU)”.

As for B3, the binding result is on record as “no binding (tested: all below 3.5 RU)”.

B4: the binding result is reported as “no binding (tested: all below 3.5 RU)”.

For B5, the binding result is “no binding (tested: all below 3.5 RU)”.

Another assay concerns the target RCL1 peptide/HLA-A*02:01 complex (recombinant) (human, UniProt P16213 21-119 (Pongo pygmaeus entry)). Put plainly: SPR.
B1: the binding result was “no binding (tested: all below 3.5 RU)”.

On to B2, for which the binding result is given as “no binding (tested: all below 3.5 RU)”.

Consider B3, for which the binding result is on record as “no binding (tested: all below 3.5 RU)”.

For B4, the binding result is “no binding (tested: all below 3.5 RU)”.

For the molecule B5, the binding result was “no binding (tested: all below 3.5 RU)”.

The target of a further assay is CDC14A peptide/HLA-A*02:01 complex (recombinant) (human). Put plainly: SPR.
On to B1, for which the binding result was “no binding (tested: all below 3.5 RU)”.

Turning to B2, the binding result was “no binding (tested: all below 3.5 RU)”.

Consider B3, for which the binding result is listed as “no binding (tested: all below 3.5 RU)”.

For B4, the binding result is listed as “no binding (tested: all below 3.5 RU)”.

With B5, the binding result is recorded as “no binding (tested: all below 3.5 RU)”.

The target in another assay is NR2E1 peptide/HLA-A*02:01 complex (recombinant) (human). Put plainly: SPR.
For B1, the binding result is “no binding (tested: all below 3.5 RU)”.

For the molecule B2, the binding result is “no binding (tested: all below 3.5 RU)”.

With B3, the binding result is reported as “no binding (tested: all below 3.5 RU)”.

Take B4: the binding result was “no binding (tested: all below 3.5 RU)”.

B5: the binding result is “no binding (tested: all below 3.5 RU)”.

The target of another assay is OR1I1 peptide/HLA-A*02:01 complex (recombinant) (human). Put plainly: SPR.
As for B1, the binding result is “no binding (tested: all below 3.5 RU)”.

Regarding B2, the binding result is on record as “no binding (tested: all below 3.5 RU)”.

In the case of B3, the binding result is listed as “no binding (tested: all below 3.5 RU)”.

Take B4: the binding result was “no binding (tested: all below 3.5 RU)”.

Turning to B5, the binding result is given as “no binding (tested: all below 3.5 RU)”.

The next assay addresses PTP4A1 peptide/HLA-A*02:01 complex (recombinant) (human). Put plainly: SPR.
For the molecule B1, the binding result is on record as “no binding (tested: all below 3.5 RU)”.

Consider B2, for which the binding result was “no binding (tested: all below 3.5 RU)”.

Take B3: the binding result is “no binding (tested: all below 3.5 RU)”.

On to B4, for which the binding result is “no binding (tested: all below 3.5 RU)”.

B5: the binding result is “no binding (tested: all below 3.5 RU)”.

The next assay concerns the target T1, AFP158/HLA-A*02:01 complex. The assay is described as follows: SPR, scFv-mIgG2aFc from supernatant captured, complex as analyte. The source holds these as a separate data set.
Procedure: as §1, §2
As for B11, binding was characterised by a dissociation constant (Kd) of 440 nM, the off-rate constant (koff) was 0.056 s⁻¹ and the kon worked out at 130000 M⁻¹ s⁻¹.

Regarding B12, the affinity, expressed as Kd, was 54 nM.

Consider B13, for which binding was put at a Kd of 450 nM, the koff is 0.056 s⁻¹ and the kon is 120000 M⁻¹ s⁻¹.

B14 displayed an equilibrium dissociation constant (Kd) of 520 nM, a koff of 0.065 s⁻¹ and an on-rate (kon) of 130000 M⁻¹ s⁻¹.

The molecule B15 showed a dissociation constant (Kd) of 450 nM, a dissociation rate constant (koff) of 0.057 s⁻¹ and a kon of 130000 M⁻¹ s⁻¹.

For a further assay, the target named is T1, AFP158/HLA-A*02:01 complex. The description is as above. This is another data set of the same source.
Procedure: as §1, §2
B16 had a Kd of 380 nM, a dissociation rate constant (koff) of 0.071 s⁻¹ and a kon of 190000 M⁻¹ s⁻¹.

With B17, the affinity, expressed as Kd, was 340 nM; the koff amounted to 0.095 s⁻¹; the kon was 280000 M⁻¹ s⁻¹.

Source of the values: US20240279318A1 (NANJING LEGEND BIOTECH, published 2024).
